Experimental data published in patent US20260049151A1 (SHENGHE CHINA BIOPHARMACEUTICAL, published 2026).

T1: Human-TNFR2-His (human, UniProt P20333 23-257)
T1 construct: Bought protein; also called human TNFR2 protein; TNFR2 protein; not shown: His tag
T1 sequence (looked up): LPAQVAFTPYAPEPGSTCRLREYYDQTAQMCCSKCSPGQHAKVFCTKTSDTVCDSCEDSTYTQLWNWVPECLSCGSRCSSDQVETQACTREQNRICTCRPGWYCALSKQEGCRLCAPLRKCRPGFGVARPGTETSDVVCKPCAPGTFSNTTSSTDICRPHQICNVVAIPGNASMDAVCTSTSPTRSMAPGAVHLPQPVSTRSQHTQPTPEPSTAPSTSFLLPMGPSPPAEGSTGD


What was measured:
[1] = biological target: T1, Human-TNFR2-His; experiment: BLI, antibody on AHC sensor, 100 nM TNFR2-His in solution
Experimental: The AHC sensor was soaked in 0.02% PBST (0.02% Tween 20, pH 7.4, 1×PBS) as a buffer for 600 s to remove the sucrose covering the sensor surface. The AHC sensor was equilibrated with 0.02% PBST (0.02% Tween 20, pH 7.4, 1×PBS) as a buffer for 60 s, the antibody in the sample plate was solidified for 300 s, and the secondary equilibration buffer was used for 180 s. 100 nM human-TNFR2-His (manufacturer: SINO, CAT: 10417-H08H, LOT: LC15NO0412) protein was bound to the antibody for 300 s and then dissociated for 600 s. After dissociation, 10 mM glycine (pH 2.0) was used as a regeneration buffer for 30 s. The sensor was regenerated with 10 mM glycine (pH 2.0).

[2] = biological target: T2, Human 4-1BB His (human, UniProt Q07011 24-186); experiment: BLI, antibody on AHC sensor, 100 nM 4-1BB His in solution
T2 construct: Bought protein; lots 198-2146F1-W6 and 2407c-214FF1-YC; also called human 4-1BB protein; 4-1BB protein; not shown: His tag
T2 sequence (Q07011 24-186 limits assumed): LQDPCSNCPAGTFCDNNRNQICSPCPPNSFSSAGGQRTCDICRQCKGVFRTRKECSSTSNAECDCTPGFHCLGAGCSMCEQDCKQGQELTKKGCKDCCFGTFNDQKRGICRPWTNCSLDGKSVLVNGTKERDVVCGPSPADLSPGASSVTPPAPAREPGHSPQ
Source text: The variable region of the antibody sequence of the positive control consists of SEQ ID NO: 15 and SEQ ID NO: 19, with the addition of the constant region of human IgG1 (SEQ ID NO: 46 and SEQ ID NO: 47). The AHC sensor was soaked in 0.02% PBST (0.02% Tween 20, pH 7.4, 1× PBS) as a buffer for 600 s to remove the sucrose covering the sensor surface. The AHC sensor was equilibrated with 0.02% PBST (0.02% Tween 20, pH 7.4, 1× PBS) as a buffer for 60 s, the antibody in the sample plate was solidified for 300 s, and the secondary equilibration buffer was used for 180 s. 100 nM human 4-1BB His (manufacturer: Acro, CAT: 41B-H5258, LOT: 198-2146F1-W6) protein was bound to the antibody for 300 s and then dissociated for 600 s. After dissociation, 10 mM glycine (pH 2.0) was used as a regeneration buffer for 30 s. The sensor was regenerated with 10 mM glycine (pH 2.0).

[3] = biological target: T3, Human 4-1BB Fc (human, UniProt Q07011 24-186); experiment: bridging ELISA: Human 4-1BB Fc coated (0.3 ug/mL), antibody titrated, then Human-TNFR2-His (0.3 ug/mL), HRP anti-His detection (Example 4)
T3 construct: same catalogue and lot number as Human 4-1BB His; not shown: Fc
T3 sequence (Q07011 24-186 limits assumed): as above

Kd [1] | koff [1] | kon [1] | Kd [2] | koff [2] | kon [2] | EC50 (read off the curve) [3] | Binder
0.241 nM | 6.64e-05 s⁻¹ | 276000 M⁻¹ s⁻¹ | 6.42 nM | 0.00435 s⁻¹ | 677000 M⁻¹ s⁻¹ | ~0.3 nM | Antibody H (bispecific antibody, human IgG1, kappa, IgG1 subtype; full-length TNFR2 antibody with 4-1BB scFv at the N-terminus of the light chains) light: QVQLQESGPGLVKPSETLSLTCTVSGSSLTSYGVHWVRQPPGKCLEGLGVIWPGGSTNYNSALMSRVTISKDNSKSQVSLKMSSLTAADTAVYYCARVTGTWYFDVWGQGTTVTVSSGGGGSGGGGSGGGGSDIQMTQSPSSLSASLGDRVTISCSASQGISNYLNWYQQKPDGTVKLLIYYTSTLHSGVPSRFSGSGSGTDYTLTISSLQPEDIATYYCQQYSKLPWTFGCGTKLEIKGGGGSGGGGSGGGGSDIVMTQSPATLSVSPGERATLSCKASQNVGSNVDWYQQKPGQSPRVLIYKASIRYTGIPARFSGSGSGTEFTLTISILQSEDFAVYFCMQSKSYPITFGQGTKLEIKRTVAAPSVFIFPPSDEQLKSGTASVVCLLNNFYPREAKVQWKVDNALQSGNSQESVTEQDSKDSTYSLSSTLTLSKADYEKHKVYACEVTHQGLSSPVTKSFNRGEC heavy: not shown
0.207 nM | 8.04e-05 s⁻¹ | 389000 M⁻¹ s⁻¹ | 18.1 nM | 0.00546 s⁻¹ | 302000 M⁻¹ s⁻¹ | ~0.2 nM | Antibody E1 (bispecific antibody, human IgG1, kappa, IgG1 subtype; full-length TNFR2 antibody with 4-1BB scFv at the C-terminus of the heavy chains) light: DIVMTQSPATLSVSPGERATLSCKASQNVGSNVDWYQQKPGQSPRVLIYKASIRYTGIPARFSGSGSGTEFTLTISILQSEDFAVYFCMQSKSYPITFGQGTKLEIKRTVAAPSVFIFPPSDEQLKSGTASVVCLLNNFYPREAKVQWKVDNALQSGNSQESVTEQDSKDSTYSLSSTLTLSKADYEKHKVYACEVTHQGLSSPVTKSFNRGEC heavy: not shown
1.82 nM | 0.000394 s⁻¹ | 217000 M⁻¹ s⁻¹ | 12.2 nM | 0.00616 s⁻¹ | 503000 M⁻¹ s⁻¹ | ~0.2 nM | Antibody J1 (bispecific antibody, human IgG1, kappa, IgG1 subtype; full-length 4-1BB antibody with TNFR2 VHH at the C-terminus of the heavy chains) light: DIQMTQSPSSLSASLGDRVTISCSASQGISNYLNWYQQKPDGTVKLLIYYTSTLHSGVPSRFSGSGSGTDYTLTISSLQPEDIATYYCQQYSKLPWTFGGGTKLEIKRTVAAPSVFIFPPSDEQLKSGTASVVCLLNNFYPREAKVQWKVDNALQSGNSQESVTEQDSKDSTYSLSSTLTLSKADYEKHKVYACEVTHQGLSSPVTKSFNRGEC heavy: not shown
1.28 nM | 0.000394 s⁻¹ | 308000 M⁻¹ s⁻¹ | 17.5 nM | 0.00647 s⁻¹ | 369000 M⁻¹ s⁻¹ | ~0.2 nM | Antibody M1 (bispecific antibody, human IgG1, kappa, IgG1 subtype; full-length 4-1BB antibody with TNFR2 VHH at the N-terminus of the heavy chains) light: DIQMTQSPSSLSASLGDRVTISCSASQGISNYLNWYQQKPDGTVKLLIYYTSTLHSGVPSRFSGSGSGTDYTLTISSLQPEDIATYYCQQYSKLPWTFGGGTKLEIKRTVAAPSVFIFPPSDEQLKSGTASVVCLLNNFYPREAKVQWKVDNALQSGNSQESVTEQDSKDSTYSLSSTLTLSKADYEKHKVYACEVTHQGLSSPVTKSFNRGEC heavy: not shown
